The results in this text go back to patent US12006344 (Novo Nordisk, dated 2024).

Positions count from the first letter of the chain named. In names and notes the source's numbering stands.

Test [1] deals with human MIC-1 receptor (hGFRAL, GDNF family receptor alpha like) (human) (UniProt Q6UXV0). The experiment in a line: cell-based or functional assay.
The target of test [2] is T1, human MIC-1 receptor (hGFRAL, GDNF family receptor alpha like) (human, UniProt Q6UXV0 19-394).
T1 sequence (looked up): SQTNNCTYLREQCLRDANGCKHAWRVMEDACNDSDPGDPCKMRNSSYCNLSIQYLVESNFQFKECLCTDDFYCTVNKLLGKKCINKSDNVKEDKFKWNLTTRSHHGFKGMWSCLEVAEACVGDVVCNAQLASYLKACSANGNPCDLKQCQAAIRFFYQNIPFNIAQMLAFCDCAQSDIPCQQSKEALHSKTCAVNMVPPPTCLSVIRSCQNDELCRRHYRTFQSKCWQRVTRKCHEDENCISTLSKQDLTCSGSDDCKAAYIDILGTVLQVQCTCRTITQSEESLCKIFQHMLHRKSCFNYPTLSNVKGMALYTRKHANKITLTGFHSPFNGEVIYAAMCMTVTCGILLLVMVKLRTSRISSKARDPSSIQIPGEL
In words: cell-based or functional assay.

“HSA-GGSSSGS (SEQ ID NO: 152)-MIC-1 (SEQ ID NO: 1) (from UniProt Q99988 197-308) (ligand)” yielded a pERK EC50 (nM) in test [1] of 3.6 nM.

B1: SEPATSGSETPGTSESATPESGPGTSTEPS-MIC-1-Δ1-3 (ligand)
chain: SEPATSGSETPGTSESATPESGPGTSTEPSGDHCPLGPGRCCRLHTVRASLEDLGWADWVLSPREVQVTMCIGACPSQFRAANMHAQIKTSLHRLKPDTVPAPCCVPASYNPMVLIQKTDTGVSLQTYDDLLAKDCHCI
In the case of B1, in test [2], the “pERK EC50 (nM)” value was 0.4 nM and the “pERK Emax (%)” value worked out at 100%.

B2: AAPEDEETPEQEGSGSGSGSGS-MIC-1-Δ1-3 (ligand)
chain: AAPEDEETPEQEGSGSGSGSGSGDHCPLGPGRCCRLHTVRASLEDLGWADWVLSPREVQVTMCIGACPSQFRAANMHAQIKTSLHRLKPDTVPAPCCVPASYNPMVLIQKTDTGVSLQTYDDLLAKDCHCI
For B2, in test [2], the “pERK EC50 (nM)” value turned out to be 0.5 nM and the “pERK Emax (%)” value is 100%.

B3: AAPDEGTEEETEGSGSGSGSGS-MIC-1-Δ1-3 (ligand)
chain: B2 chain with E4D, D5E, E6G, E7T, T8E, P9E, Q11T
With B3, in test [2], the “pERK EC50 (nM)” value was 0.5 nM and the “pERK Emax (%)” value was determined as 100%.

B4: …-MIC-1-Δ1-3 (ligand)
chain: SEPATSGSETPGTSTEPSEGSAPGGDHCPLGPGRCCRLHTVRASLEDLGWADWVLSPREVQVTMCIGACPSQFRAANMHAQIKTSLHRLKPDTVPAPCCVPASYNPMVLIQKTDTGVSLQTYDDLLAKDCHCI
For the molecule B4, in test [2], the “pERK EC50 (nM)” value turned out to be 0.7 nM and the “pERK Emax (%)” value was found to be 100%.

B5: (SEPATSGSETPG)2-MIC-1-Δ1-3(M86L) (ligand)
chain: B4 chain with T13S, S14E, T15P, E16A, P17T, E19G, G20S, S21E, A22T, M107L
Consider B5, for which, in test [2], the “pERK EC50 (nM)” value came out at 0.4 nM and the “pERK Emax (%)” value was found to be 100%.

B6: (SEPATSGSETPG)2-MIC-1-Δ1-3 (ligand)
chain: B4 chain with T13S, S14E, T15P, E16A, P17T, E19G, G20S, S21E, A22T
On to B6, for which, in test [2], the “pERK EC50 (nM)” value turned out to be 0.4 nM and the “pERK Emax (%)” value was determined as 100%.

B7: (SEPATSGSETPG)2-MIC-1-Δ1-3(M57E) (ligand)
chain: B4 chain with T13S, S14E, T15P, E16A, P17T, E19G, G20S, S21E, A22T, M78E
B7: in test [2], the “pERK EC50 (nM)” value was 0.6 nM and the “pERK Emax (%)” value is 60%.

B8: (SEPATSGSETPG)2-MIC-1-Δ1-3(M57L) (ligand)
chain: B4 chain with T13S, S14E, T15P, E16A, P17T, E19G, G20S, S21E, A22T, M78L
Consider B8, for which, in test [2], the “pERK EC50 (nM)” value came out at 0.6 nM and the “pERK Emax (%)” value is 100%.

B9: (SEPATSGSETPG)2-MIC-1-Δ1-3(M57L, M86L) (ligand)
chain: SEPATSGSETPGSEPATSGSETPGGDHCPLGPGRCCRLHTVRASLEDLGWADWVLSPREVQVTMCIGACPSQFRAANLHAQIKTSLHRLKPDTVPAPCCVPASYNPLVLIQKTDTGVSLQTYDDLLAKDCHCI
In the case of B9, in test [2], the “pERK EC50 (nM)” value is 0.4 nM and the “pERK Emax (%)” value is 100%.

B10: SEPATSGSETPGTSESATPESGPG TSTEPSEG-MIC-1-Δ1-3 (ligand)
chain: SEPATSGSETPGTSESATPESGPGTSTEPSEGGDHCPLGPGRCCRLHTVRASLEDLGWADWVLSPREVQVTMCIGACPSQFRAANMHAQIKTSLHRLKPDTVPAPCCVPASYNPMVLIQKTDTGVSLQTYDDLLAKDCHCI
Turning to B10, in test [2], the “pERK EC50 (nM)” value was found to be 0.4 nM and the “pERK Emax (%)” value is 100%.

B11: AAPEDEETPEQE-MIC-1-Δ1-3 (ligand)
chain: AAPEDEETPEQEGDHCPLGPGRCCRLHTVRASLEDLGWADWVLSPREVQVTMCIGACPSQFRAANMHAQIKTSLHRLKPDTVPAPCCVPASYNPMVLIQKTDTGVSLQTYDDLLAKDCHCI
Consider B11, for which, in test [2], the “pERK EC50 (nM)” value came to 0.5 nM and the “pERK Emax (%)” value is 100%.

B12: MIC-1(R2A, N3E, A81E) (ligand)
chain: AAEGDHCPLGPGRCCRLHTVRASLEDLGWADWVLSPREVQVTMCIGACPSQFRAANMHAQIKTSLHRLKPDTVPAPCCVPESYNPMVLIQKTDTGVSLQTYDDLLAKDCHCI
Regarding B12, in test [2], the “pERK EC50 (nM)” value was 0.3 nM and the “pERK Emax (%)” value stood at 100%.

B13: A(GPEQGQEP)3-MIC-1-Δ1-3 (ligand)
chain: AGPEQGQEPGPEQGQEPGPEQGQEPGDHCPLGPGRCCRLHTVRASLEDLGWADWVLSPREVQVTMCIGACPSQFRAANMHAQIKTSLHRLKPDTVPAPCCVPASYNPMVLIQKTDTGVSLQTYDDLLAKDCHCI
With B13, in test [2], the “pERK EC50 (nM)” value was found to be 0.8 nM and the “pERK Emax (%)” value amounted to 100%.

B14: AASPAGSPTSTEEGTSESATPESGPG-MIC-1-Δ1-3 (ligand)
chain: AASPAGSPTSTEEGTSESATPESGPGGDHCPLGPGRCCRLHTVRASLEDLGWADWVLSPREVQVTMCIGACPSQFRAANMHAQIKTSLHRLKPDTVPAPCCVPASYNPMVLIQKTDTGVSLQTYDDLLAKDCHCI
Regarding B14, in test [2], the “pERK EC50 (nM)” value is 0.7 nM and the “pERK Emax (%)” value amounted to 100%.
